Assay results as given in PMC8048298.

What was measured:
[1] = biological target: GST-SMARCA4-F4 (aa1009-1314) (human) (UniProt P51532); test: MST; SMARCA4 protein labelled with NT-647-NHS at 100 nM; peptides 10 nM to 500 μM; PBS pH 7.4, 0.05% Tween-20; 5 min incubation; Monolith NT.115; one-site binding (Kd formula)
[2] = biological target: Flag-tagged SMARCA4 purified from HCT116 cells (human) (UniProt P51532); test: as above
[3] = biological target: GST-SMARCA4-F4 (aa1009-1314) (human) (UniProt P51532); test: ITC; peptide 1 mM in the syringe, protein 100 μM in the cell; 19 injections of 2 μl; PBS; 25 °C; MicroCal ITC-200

## histone H4 N-terminal 20 amino acid peptide, Arg3 asymmetrically dimethylated (H4R3me2a), C-terminal biotin (from UniProt P62805 2-21)
[1]
  Kd: 5.36 µM
[2]
  Kd: 6.27 µM
[3]
  Kd: 2.41 µM
